Laboratory results taken from patent US20160058827A1.

Biological target: MUC1 C-terminal subunit (MUC1-C) (human) (UniProt P15941)
Assay: cell-based or functional assay

Sequence of MUC1 C-terminal subunit (MUC1-C) (human) (P15941 1097-1255): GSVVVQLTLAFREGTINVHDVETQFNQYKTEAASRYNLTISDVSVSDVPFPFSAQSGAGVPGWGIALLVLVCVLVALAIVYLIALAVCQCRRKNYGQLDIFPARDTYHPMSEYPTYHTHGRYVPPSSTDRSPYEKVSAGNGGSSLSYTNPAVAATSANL

GO-203 (peptide) showed a half-maximal inhibitory concentration for GO-203 (BT-474/CshRNA cell growth) of 3.9 µM.
